{"source": "paper PMC6607443", "about": "“Systematic identification of recognition motifs for the hub protein LC8” (Life Science Alliance, 2019)", "molecular_target": "dynein light chain LC8 (UniProt P63167)", "sequence (P63167 whole entry)": "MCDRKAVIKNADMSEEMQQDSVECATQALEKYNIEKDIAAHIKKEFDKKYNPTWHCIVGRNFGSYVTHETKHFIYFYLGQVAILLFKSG", "test": "ITC; peptide (500 μM) injected into 25 μM LC8 in the cell; 25°C; 50 mM sodium phosphate, 50 mM NaCl, 1 mM sodium azide, 5 mM β-mercaptoethanol, pH 7.5; single-site model; averages of two to three experiments", "data": [{"substance": "HIV Tat-specific factor 1 (HTATSF1) peptide", "values": [{"measurement": "Kd", "result": 10, "unit": "µM"}, {"measurement": "stoichiometry N (peptide per LC8 chain)", "result": 1}]}]}
